Experimental data as given in PMC10053881 (Pharmaceutics, 2023).
Bridge positions count the residues as written; N and C are the ends. Square brackets hold non-standard residues; d marks the D form. Peptide text beside a SMILES is read from it. * marks the point of attachment. DOTA = O=C(O)CN1CCN(CC(=O)O)CCN(CC(=O)*)CCN(CC(=O)O)CC1; dPhe(4-NHCONH2) = NC(=O)Nc1ccc(C[C@@H](N)C(=O)O)cc1; Phe(4-Cl) = N[C@@H](Cc1ccc(Cl)cc1)C(=O)O

Assay: Biodistribution in SCID mice bearing twin HEK293-SST2R and wtHEK293 tumors
Conditions: male, mouse, iv, total radioactivity, mean ± sd, n = 4; for tissue uptake at 4 h: 4 h pi; for tissue uptake at 24 h: 24 h pi; for tissue uptake at 48 h: 48 h pi
Method: Freshly harvested HEK293-SST2R cells (1.2 × 10^7cells) and wtHEK293 cells (0.6 × 10^7 cells) were suspended in physiological saline (150 μL) and inoculated in the right and left flanks, respectively, of 43 male SCID mice (23.1 ± 1.6 g body weight, six weeks of age on arrival day; NCSR “Demokritos” Animal House, Athens, Greece). Mice were kept under aseptic conditions for 12–15 days and until palpable tumors (300–600 mg) were grown at the inoculation sites. […] Animals were euthanized at 4 and 24 h pi and immediately dissected. Blood samples, organs of interest and tumors were rapidly collected, weighed and counted in the gamma counter. […] Animals were euthanized at 4, 24 and 48 h pi and the procedure described above was followed. Biodistribution data were calculated with the aid of suitable standards of the administered dose as percent of the injected activity per gram tissue (%IA/g) with excel software (Microsoft Corporation, Redmond, Washington, […], USA). Results were provided as average ± sd values, n = 4 per time point, via the PRISM^TM 6.0 GraphPad software (San Diego, CA, USA). Statistical analysis was performed as previously described.

[1] = in vivo, Tu+ (HEK293-SST2R tumor) uptake, In-111 radioligands, iv 20–25 pmol
[2] = kidneys, Kidneys uptake, In-111 radioligands, iv 20–25 pmol
[3] = liver, Liver uptake, In-111 radioligands, iv 20–25 pmol
[4] = lungs, Lungs uptake, In-111 radioligands, iv 20–25 pmol
[5] = muscle, Muscle uptake, In-111 radioligands, iv 20–25 pmol
[6] = pancreas, Pancreas uptake, In-111 radioligands, iv 20–25 pmol
[7] = spleen, Spleen uptake, In-111 radioligands, iv 20–25 pmol
[8] = stomach, Stomach uptake, In-111 radioligands, iv 20–25 pmol
[9] = blood, 40 pmol, Blood uptake, Lu-177 radioligands, iv 40 pmol
[10] = femur, 40 pmol, Femur uptake, Lu-177 radioligands, iv 40 pmol
[11] = in vivo, 40 pmol, Tu+ (HEK293-SST2R tumor) uptake, Lu-177 radioligands, iv 40 pmol
[12] = in vivo, 40 pmol, Tu- (wtHEK293 tumor) uptake, Lu-177 radioligands, iv 40 pmol
[13] = intestines, 40 pmol, Intestines uptake, Lu-177 radioligands, iv 40 pmol
[14] = kidneys, 40 pmol, Kidneys uptake, Lu-177 radioligands, iv 40 pmol
[15] = liver, 40 pmol, Liver uptake, Lu-177 radioligands, iv 40 pmol
[16] = lungs, 40 pmol, Lungs uptake, Lu-177 radioligands, iv 40 pmol
[17] = muscle, 40 pmol, Muscle uptake, Lu-177 radioligands, iv 40 pmol
[18] = pancreas, 40 pmol, Pancreas uptake, Lu-177 radioligands, iv 40 pmol
[19] = spleen, 40 pmol, Spleen uptake, Lu-177 radioligands, iv 40 pmol
[20] = stomach, 40 pmol, Stomach uptake, Lu-177 radioligands, iv 40 pmol

**Q.** With `C[C@@H](O)[C@@H]1NC(=O)[C@H](CCCCN)NC(=O)[C@@H](Cc2ccc(NC(N)=O)cc2)NC(=O)[C@H](Cc2ccc(O)cc2)NC(=O)[C@H](NC(=O)[C@H](Cc2ccc(Cl)cc2)NC(=O)CN2CCN(CC(=O)O)CCN(CC(=O)O)CCN(CC(=O)O)CC2)CSSC[C@@H](C(=O)N[C@H](Cc2ccc(O)cc2)C(N)=O)NC1=O` [[^111In]In-DOTA-LM3, metal not drawn] ({DOTA}-[Phe(4-Cl)][dC]Y[dPhe(4-NHCONH2)]KTC[dY]-NH2; disulfide 2-7) as the molecule, how does the tissue uptake at 4 h [1] read?
**A.** The tissue uptake at 4 h was 36.4 ± 2.05 %ID/g.

**Q.** What about the tissue uptake at 24 h [1] of the same molecule?
**A.** The tissue uptake at 24 h was 20.9 ± 3.02 %ID/g.

**Q.** And the tissue uptake at 24 h (in vivo, Tu- (wtHEK293 tumor) uptake, In-111 radioligands, iv 20–25 pmol)?
**A.** The tissue uptake at 24 h was 0.29 ± 0.01 %ID/g.

**Q.** What about the tissue uptake at 4 h [2] of the same molecule?
**A.** The tissue uptake at 4 h was 15.4 ± 0.58 %ID/g.

**Q.** And the tissue uptake at 24 h [2]?
**A.** The tissue uptake at 24 h was 4.25 ± 0.77 %ID/g.

**Q.** And the tissue uptake at 4 h [3]?
**A.** Its tissue uptake at 4 h is 2.04 ± 0.25 %ID/g.

**Q.** What about the tissue uptake at 24 h [3] of the same molecule?
**A.** The tissue uptake at 24 h was 0.58 ± 0.06 %ID/g.

**Q.** And the tissue uptake at 4 h [4]?
**A.** Its tissue uptake at 4 h is 3.14 ± 0.48 %ID/g.

**Q.** What about the tissue uptake at 24 h [4] of the same molecule?
**A.** The tissue uptake at 24 h was 0.59 ± 0.12 %ID/g.

**Q.** What about the tissue uptake at 4 h [5] of the same molecule?
**A.** Its tissue uptake at 4 h is 0.08 ± 0.01 %ID/g.

**Q.** And the tissue uptake at 24 h [5]?
**A.** The tissue uptake at 24 h was 0.04 ± 0.02 %ID/g.

**Q.** And the tissue uptake at 4 h [6]?
**A.** Its tissue uptake at 4 h is 9.94 ± 0.79 %ID/g.

**Q.** What about the tissue uptake at 24 h [6] of the same molecule?
**A.** The tissue uptake at 24 h was 1.2 ± 0.14 %ID/g.

**Q.** What about the tissue uptake at 4 h [7] of the same molecule?
**A.** The tissue uptake at 4 h was 0.46 ± 0.05 %ID/g.

**Q.** And the tissue uptake at 24 h [7]?
**A.** The tissue uptake at 24 h was 0.27 ± 0.03 %ID/g.

**Q.** What about the tissue uptake at 4 h [8] of the same molecule?
**A.** Its tissue uptake at 4 h is 0.8 ± 0.17 %ID/g.

**Q.** What about the tissue uptake at 24 h [8] of the same molecule?
**A.** The tissue uptake at 24 h was 0.5 ± 0.09 %ID/g.

**Q.** Which tissue uptake at 24 h [9] does the source give for `C[C@@H](O)[C@@H]1NC(=O)[C@H](CCCCN)NC(=O)[C@@H](Cc2ccc(NC(N)=O)cc2)NC(=O)[C@H](Cc2ccc(O)cc2)NC(=O)[C@H](NC(=O)[C@H](Cc2ccc(Cl)cc2)NC(=O)CN2CCN(CC(=O)O)CCN(CC(=O)O)CCN(CC(=O)O)CC2)CSSC[C@@H](C(=O)N[C@H](Cc2ccc(O)cc2)C(N)=O)NC1=O` [[^177Lu]Lu-DOTA-LM3, metal not drawn] ({DOTA}-[Phe(4-Cl)][dC]Y[dPhe(4-NHCONH2)]KTC[dY]-NH2; disulfide 2-7) here?
**A.** The tissue uptake at 24 h was 0.07 %ID/g.

**Q.** What about the tissue uptake at 48 h [9] of the same molecule?
**A.** The tissue uptake at 48 h was 0.06 ± 0.01 %ID/g.

**Q.** And the tissue uptake at 4 h [10]?
**A.** Its tissue uptake at 4 h is 1.56 ± 0.24 %ID/g.

**Q.** What about the tissue uptake at 24 h [10] of the same molecule?
**A.** Its tissue uptake at 24 h is 1.38 ± 0.18 %ID/g.

**Q.** What about the tissue uptake at 48 h [10] of the same molecule?
**A.** Its tissue uptake at 48 h is 0.88 ± 0.05 %ID/g.

**Q.** What about the tissue uptake at 48 h (heart, 40 pmol, Heart uptake, Lu-177 radioligands, iv 40 pmol) of the same molecule?
**A.** The tissue uptake at 48 h was 0.13 ± 0.02 %ID/g.

**Q.** And the tissue uptake at 4 h [11]?
**A.** Its tissue uptake at 4 h is 45.5 ± 1.66 %ID/g.

**Q.** What about the tissue uptake at 24 h [11] of the same molecule?
**A.** Its tissue uptake at 24 h is 37.6 ± 3.42 %ID/g.

**Q.** What about the tissue uptake at 48 h [11] of the same molecule?
**A.** Its tissue uptake at 48 h is 18.8 ± 0.88 %ID/g.

**Q.** And the tissue uptake at 4 h [12]?
**A.** Its tissue uptake at 4 h is 1.66 ± 0.14 %ID/g.

**Q.** And the tissue uptake at 24 h [12]?
**A.** Its tissue uptake at 24 h is 1.53 ± 0.15 %ID/g.

**Q.** And the tissue uptake at 48 h [12]?
**A.** Its tissue uptake at 48 h is 0.75 ± 0.08 %ID/g.

**Q.** And the tissue uptake at 4 h [13]?
**A.** Its tissue uptake at 4 h is 2.71 ± 0.18 %ID/g.

**Q.** What about the tissue uptake at 24 h [13] of the same molecule?
**A.** The tissue uptake at 24 h was 1.52 ± 0.21 %ID/g.

**Q.** And the tissue uptake at 48 h [13]?
**A.** Its tissue uptake at 48 h is 0.78 ± 0.09 %ID/g.

**Q.** What about the tissue uptake at 4 h [14] of the same molecule?
**A.** The tissue uptake at 4 h was 11.5 ± 0.26 %ID/g.

**Q.** And the tissue uptake at 24 h [14]?
**A.** Its tissue uptake at 24 h is 5.14 ± 0.92 %ID/g.

**Q.** And the tissue uptake at 48 h [14]?
**A.** Its tissue uptake at 48 h is 2.47 ± 0.67 %ID/g.

**Q.** And the tissue uptake at 4 h [15]?
**A.** The tissue uptake at 4 h was 6.79 ± 0.84 %ID/g.

**Q.** What about the tissue uptake at 24 h [15] of the same molecule?
**A.** The tissue uptake at 24 h was 3.38 ± 0.89 %ID/g.

**Q.** What about the tissue uptake at 48 h [15] of the same molecule?
**A.** The tissue uptake at 48 h was 1.47 ± 0.05 %ID/g.

**Q.** What about the tissue uptake at 4 h [16] of the same molecule?
**A.** Its tissue uptake at 4 h is 15.7 ± 1.2 %ID/g.

**Q.** What about the tissue uptake at 24 h [16] of the same molecule?
**A.** Its tissue uptake at 24 h is 8.88 ± 0.26 %ID/g.

**Q.** What about the tissue uptake at 48 h [16] of the same molecule?
**A.** Its tissue uptake at 48 h is 5.11 ± 0.63 %ID/g.

**Q.** What about the tissue uptake at 4 h [17] of the same molecule?
**A.** Its tissue uptake at 4 h is 0.07 ± 0.01 %ID/g.

**Q.** What about the tissue uptake at 24 h [17] of the same molecule?
**A.** Its tissue uptake at 24 h is 0.05 ± 0.01 %ID/g.

**Q.** What about the tissue uptake at 48 h [17] of the same molecule?
**A.** Its tissue uptake at 48 h is 0.05 %ID/g.

**Q.** What about the tissue uptake at 4 h [18] of the same molecule?
**A.** The tissue uptake at 4 h was 46.6 ± 2.2 %ID/g.

**Q.** And the tissue uptake at 24 h [18]?
**A.** The tissue uptake at 24 h was 23 ± 4.32 %ID/g.

**Q.** And the tissue uptake at 48 h [18]?
**A.** Its tissue uptake at 48 h is 7.85 ± 0.94 %ID/g.

**Q.** What about the tissue uptake at 4 h [19] of the same molecule?
**A.** The tissue uptake at 4 h was 0.81 ± 0.06 %ID/g.

**Q.** And the tissue uptake at 24 h [19]?
**A.** The tissue uptake at 24 h was 0.56 ± 0.07 %ID/g.

**Q.** And the tissue uptake at 48 h [19]?
**A.** Its tissue uptake at 48 h is 0.4 ± 0.03 %ID/g.

**Q.** And the tissue uptake at 4 h [20]?
**A.** The tissue uptake at 4 h was 14.6 ± 1.85 %ID/g.

**Q.** What about the tissue uptake at 24 h [20] of the same molecule?
**A.** Its tissue uptake at 24 h is 8.03 ± 1.43 %ID/g.

**Q.** What about the tissue uptake at 48 h [20] of the same molecule?
**A.** The tissue uptake at 48 h was 3.27 ± 0.34 %ID/g.
